This note sets out measurements from patent US20090263836A1.

This assay concerns the target iBoNT/A (protease inactive version of BoNT/A) (Clostridium botulinum). The assay is described as follows: SPR (BIAcore), […] ([…] to […]).

With “sFGFR3 (loop 2 and 3 of the extra cellular domain of FGFR3) (receptor)”, the Kd came out at 10 nM.

Regarding “SV2C529-566 (luminal part of SV2C) (peptide)”, the Kd stood at 5000 nM.
